The test deals with AMA1 on P. falciparum 3D7 strain parasites (Plasmodium falciparum). Put plainly: cell-based or functional assay.

In turn, rat mAb 4G2dc1 (antibody) returned an IC30 concentration (30% inhibition against the 3D7 target parasites, GIA) of 1800 µg/mL and an Inhibition (GIA at 1 mg/ml against the 3D7 target strain) of 22%.
